Consider five molecules from US20080063646A1 (AbbVie / Abbott, published 2008).

Substitutions are numbered along the chain they refer to. Numbers in names are those of the source. Where “and” joins values, the source holds several entries; their conditions need not be identical. Equal entries are not always repeated.

Experiment [1] concerns the target T1, recombinant human IP-10 (R&D Systems) (human, UniProt P02778 22-98).
T1 sequence: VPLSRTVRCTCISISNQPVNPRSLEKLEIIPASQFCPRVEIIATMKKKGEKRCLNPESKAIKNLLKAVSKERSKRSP
The experiment can be described thus: cell-based or functional assay.

Experiment [2] deals with T2, B lymphocyte chemokine (BLC) (UniProt O43927 23-109, limits assumed).
T2 sequence (looked up): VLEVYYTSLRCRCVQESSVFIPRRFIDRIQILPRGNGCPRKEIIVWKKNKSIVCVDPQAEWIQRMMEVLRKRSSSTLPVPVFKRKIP
Nature of the experiment: ELISA with hybridoma supernatants.

The target in experiment [3] is T1, recombinant human IP-10 (R&D Systems). The experiment can be described thus: Biacore. (In general: SPR reads the build-up and loss of mass on a sensor chip optically.)

B1: murine monoclonal antibody AIP12 (antibody, V domains shown)
VH: QIQLVQSGPELKKPGETVKISCKASGYTFTDYSMHWVKQAPGKGLKWMGWINTETGEPTYADDFKGRFAFSLETSASTAYLQINNLKNEDTATYFCARNYDYDGYFDVWGAGTTVTVSS
VL: DIQMTQSPSSLSASLGGKVTITCKASQDINKYIAWYQHKPGKGPRLLIHYTSTLQPGIPSRFSGSGSGRDYSFSISNLEPEDIATYYCLQYDNLLFTFGSGTKLEIK
notes: Mouse hybridoma antibody; Mouse IgG1/kappa is used as its isotype control; also called MuAIP12; MUAIP12
As for B1, in experiment [1], the “IC50 of inhibition of chemotaxis, donor 215” value (“IC50 of inhibition … donor 215” below) worked out at 0.13 µg/mL; the “IC50 of inhibition of chemotaxis, donor 318” value (from here on “IC50 of inhibition … donor 318”) was found to be 0.041 µg/mL; the “IC50 of inhibition of chemotaxis, donor 1012” value stood at 0.091 µg/mL; the “IC50 of inhibition of chemotaxis, donor 1022” value was 0.135 µg/mL and 0.051 µg/mL and 0.086 µg/mL. Moreover, the binding result in experiment [2] is given as “no binding”.

B2: murine monoclonal antibody AIP13 (antibody, V domains shown)
VH: B1 VH with T55I, G104A
VL: B1 VL with S26D, K42R, I48L, Y50H, E81A, N93S
notes: Mouse hybridoma antibody; Mouse IgG1/kappa is used as its isotype control; also called MuAIP13
Take B2: in experiment [1], the “IC50 of inhibition … donor 215” value amounted to 0.26 µg/mL; the “IC50 of inhibition … donor 318” value turned out to be 0.139 µg/mL; the “IC50 of inhibition of chemotaxis, donor 1012” value was determined as 0.084 µg/mL; the “IC50 of inhibition of chemotaxis, donor 1022” value was 0.229 µg/mL and 0.154 µg/mL and 0.078 µg/mL. For the same molecule, the binding result in experiment [2] is listed as “no binding”.

B3: HuAIP12 G104A variant antibody (antibody, V domains shown)
VH: EVQLVQSGAEVKKPGATVKISCKVSGYTFTDYSMHWVRQAPGKGLKWMGWINTETGEPTYADDFKGRFTFTLDTSTSTAYMELSSLRSEDTAVYYCARNYDYDAYFDVWGQGTTVTVSS
VL: DIQMTQSPSSLSASVGDRVTITCKASQDINKYIAWYQQKPGKAPKLLIHYTSTLQPGIPSRFSGSGSGRDYTFTISSLQPEDIATYYCLQYDNLLFTFGQGTKLEIK
notes: Human gamma-1 / kappa, transiently expressed in 293-H cells
As to B3, in experiment [3], the “fold faster off-rate (kd) than unmodified HuAIP12” value was about 2 fold, the “fold higher Kd than unmodified HuAIP12” value is over 20 fold, the “fold slower on-rate (ka) than unmodified HuAIP12” value was about 10 fold and the “fold weaker monovalent interaction than unmodified HuAIP12” value was 20 fold.

B4: humanized monoclonal antibody HuAIP13 (antibody, IgG1, V domains shown)
VH: B3 VH with T55I
VL: B3 VL with S26D, I48L, Y50H, N93S
As to B4, in experiment [1], the “IC50 of inhibition … donor 215” value turned out to be 0.139 µg/mL; the “IC50 of inhibition … donor 318” value was found to be 0.045 µg/mL; the “IC50 of inhibition of chemotaxis, donor 1012” value stood at 0.077 µg/mL.

B5: humanized monoclonal antibody HuAIP12 (antibody, IgG1, V domains shown)
VH: B3 VH with A104G
VL: B3 VL
Consider B5, for which, in experiment [1], the “IC50 of inhibition … donor 215” value was 0.142 µg/mL; the “IC50 of inhibition … donor 318” value is 0.038 µg/mL; the “IC50 of inhibition of chemotaxis, donor 1012” value worked out at 0.073 µg/mL.
